In publication PMC11201429:

Molecular target: thrombin (human alpha-thrombin not specified) (human, UniProt P00734;P00734 328-363;364-622)
Test: QCM-D; aptamer immobilised on streptavidin/biotin-PE/POPC bilayer; thrombin 1-25 ug/mL, shift 3 to 81 Hz; LOD 29 nM (not a Kd); PBS with CaCl2 and MgCl2 (concentrations not given), 0.1% BSA, 37 C; aptamer 0.5 uM loaded, heated to 95 C for 5 min and cooled to RT

CGCCTAGGTTGGGTAGGGTGGTGGCG (structured_DNA, 5'-biotin) [NU172 thrombin aptamer]: binds.
